Blank lines part the entries; values can stand above or below the binder they belong to. Ends that are not written are not given here. * marks the point of attachment. PP1 = 3,5-bis[[bis(2-pyridylmethyl)amino]methyl]benzoic acid, O=C(c1cc(CN(Cc2ccccn2)Cc2ccccn2)cc(CN(Cc2ccccn2)Cc2ccccn2)c1)*; X2 = 7‑methoxycoumarin‑3‑carboxylic acid, COc1ccc2cc(C(=O)*)c(=O)oc2c1
Key:
α-casein [1] = target: T1, α-casein (UniProt P02662 16-214, between 8 and 13 phosphate groups, at serine side chains); assay: three-step fluorescence titration, 500 nM binder; rough estimate
T1 construct: Commercial α-casein is a mixture of subtypes; also called a-casein
T1 sequence (looked up): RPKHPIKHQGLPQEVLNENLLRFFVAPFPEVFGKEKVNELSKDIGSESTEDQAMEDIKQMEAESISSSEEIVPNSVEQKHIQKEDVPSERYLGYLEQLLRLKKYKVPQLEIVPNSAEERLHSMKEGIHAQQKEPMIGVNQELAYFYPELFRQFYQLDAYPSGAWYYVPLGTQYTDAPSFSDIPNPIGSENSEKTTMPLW
Protocol: In a preliminary and simple assay executable in microtitre plate format, each of the eight binder candidates at a concentration of 500 nM in 10 mM HEPES buffer and 150 mM NaCl at pH 7.2, equipped with the fluorophor 7-methoxycoumarin-3-carboxylic acid, were titrated with α-casein in three steps (FIG. 8). Concentrations of peptides were determined from the absorbance of the coumarine probe and stock solutions at concentrations of 5 μM were prepared from which aliqiuots were transferred to the microtitre plate. […] Saturation within experimental error at those concentrations is compatible with low nM affinity and tight binding.
In contrast, the differences in relative responses to increased concentrations of α-casein are related to differences in affinity. […] Nevertheless, it is a quick and informative experiment. From the fluorescence titrations the 4-series of binder candidates was estimated to have dissociation constants of around 5 nM or lower. […] It is concluded that the 3-series binders have dissociation constants in the high nM to the μM range. The nearly identical affinities within the 3-series and within the 4-series is probably fortuitous.

α-casein [2] = target: T1, α-casein; assay: fluorescence titration, 100 nM fluorescein labelled binder, α-casein 1 nM to 10 µM, 1:1 model
Protocol: (§1) For a more accurate determination of the dissociation constant, titration with protein at a binder concentration of 100 nM in 10 mM HEPES buffer and 150 mM NaCl at pH 7.2 was carried out (FIG. 12). At this concentration a more strongly emitting probe was required and fluorescein was attached to the side chain of Cys-24 by reacting the maleimide group with the free thiol of the polypeptide after removal of the acetamidomethyl (Acm) protection group. The binder concentration was kept constant at 100 nM and a series of samples were prepared where only the concentration of α-casein was varied.
(§2) A series of solutions were prepared. […] All solutions were prepared in HEPES buffer (pH=7.2, 10 mM HEPES, 150 mM NaCl).

α-casein [3] = target: T1, α-casein; assay: fluorescence titration, binder fixed at 100 nM, concentration of total α-casein varied [upper panel, [a-casein]tot]
Protocol: as §1, §2

α-casein [4] = target: T1, α-casein; assay: fluorescence titration, binder fixed at 100 nM, plotted against the free concentration of α-casein [lower panel, [a-casein]free]
Protocol: as §1

- Kd (α-casein [1]): ≤ 5 nM
Binder: NAADLEARIRHLRERLAARGPK(PP1)DCK(X2)QLAEQLARAFERFARAG-NH2 (designed binder, not fully specified (residue 24, N-terminus); also: two Zn2+ chelated by PP1, Named only as a member of the 4-series) [4-C25L22-PP1 (coumarin form, with Zn2+)]

- Kd (α-casein [2]): 17 nM
- EC50 (read off the curve) (α-casein [3]): ~70 nM
- EC50 (read off the curve) (α-casein [4]): ~20 nM
B1: 4-C15L8-PP1* (fluorescein on Cys-24) (designed binder)
chain: NAADLEAK(PP1)IRHLREKLAARGPRDC(fluorescein maleimide)AQLAEQLARRFERFARAG-NH2
modifications: not fully specified (N-terminus); also: PP1 chelating two Zn2+, group on Lys15 not given here

Reference: patent US20130261013A1 (MODPRO, published 2013)
